Measured values taken from US20110136733A1 (IPSEN PHARMA S A S, published 2011).
Changes are numbered by the printed parent chain. Where no end group is shown, it is not given here. [ ]: non-standard residue; d: D form. The star is where a group is joined. Psu = N-propylsuccinimide on the Cys sulfur (from N-propylmaleimide), CCCN1C(=O)CC(*)C1=O; Ac6c = NC1(C(=O)O)CCCCC1; Nle = CCCC[C@H](N)C(=O)O; Aib = CC(C)(N)C(=O)O

T1: human recombinant GIP receptor (human, UniProt P48546 22-466)
T1 construct: whole, on cells; Membranes of CHO-K1 cells expressing the receptor; also called hGIP receptor
T1 sequence (looked up): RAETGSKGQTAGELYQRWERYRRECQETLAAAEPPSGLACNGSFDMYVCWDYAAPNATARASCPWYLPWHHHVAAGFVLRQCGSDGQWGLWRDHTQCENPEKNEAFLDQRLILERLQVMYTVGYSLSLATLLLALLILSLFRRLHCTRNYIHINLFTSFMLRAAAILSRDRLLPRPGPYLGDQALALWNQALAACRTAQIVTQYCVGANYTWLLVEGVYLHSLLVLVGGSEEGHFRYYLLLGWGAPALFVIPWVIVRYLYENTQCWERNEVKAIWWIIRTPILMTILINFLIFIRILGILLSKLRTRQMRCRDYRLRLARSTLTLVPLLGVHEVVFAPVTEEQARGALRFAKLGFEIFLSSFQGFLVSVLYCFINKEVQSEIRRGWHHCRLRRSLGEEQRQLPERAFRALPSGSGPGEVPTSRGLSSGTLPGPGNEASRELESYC

B1: (Aib^2, 41, A6c^7, Nle^14)hGIP(1-42)-OH (peptide)
peptide: Y[Aib]EGTF[Ac6c]SDYSIA[Nle]DKIHQQDFVNWLLAQKGKKNDWKHNI[Aib]Q-OH
B2: (Aib^2, 4)hGIP(1-30)-NH2 (peptide)
peptide: YXEXTFISDYSIAMDKIHQQDFVNWLLAQK
modifications: Aib at 2 and 4; C-terminal amide
B3: (Pro^3, A5c^11, A6c^14)hGIP(1-30)-NH2 (peptide)
peptide: YAPGTFISDYXIAXDKIHQQDFVNWLLAQK
modifications: A5c at 11; A6c at 14; C-terminal amide
B4: (D-Ala^2, A5c^11, 14)hGIP(1-30)-NH2 (peptide)
peptide: B3 peptide with P3E
modifications: D-Ala at 2; A5c at 11 and 14; C-terminal amide
notes: X stands for the non-natural residue
B5: (Aib^2, 9)hGIP(1-30)-NH2 (peptide)
peptide: B2 peptide with X4G, D9X
modifications: Aib at 2 and 9; C-terminal amide
B6: (Aib^2, A6c^7, Nle^14)hGIP(1-30)-NH2 (peptide)
peptide: B2 peptide with X4G, I7X, M14X
modifications: Aib at 2; A6c at 7; Nle at 14; C-terminal amide
B7: (Aib^2, 4)hGIP(1-42)-OH (peptide)
peptide: Y[Aib]E[Aib]TFISDYSIAMDKIHQQDFVNWLLAQKGKKNDWKHNITQ-OH
B8: (Aib^2, 11, A6c^14)hGIP(1-30)-NH2 (peptide)
peptide: B3 peptide with A2X, P3E
modifications: Aib at 2 and 11; A6c at 14; C-terminal amide
B9: (Aib^2, 7)hGIP(1-42)-OH (peptide)
peptide: Y[Aib]EGTF[Aib]SDYSIAMDKIHQQDFVNWLLAQKGKKNDWKHNITQ-OH
B10: [Aib^2, A6c^7, Cys(Psu)^38]hGIP(1-42)-OH (peptide)
peptide: Y[Aib]EGTF[Ac6c]SDYSIAMDKIHQQDFVNWLLAQKGKKNDWKC(Psu)NITQ-OH
B11: [Aib^2, A6c^7, Cys(Psu)^32]hGIP(1-42)-OH (peptide)
peptide: Y[Aib]EGTF[Ac6c]SDYSIAMDKIHQQDFVNWLLAQKGC(Psu)KNDWKHNITQ-OH
B12: [Aib^2, A6c^7, Cys(Psu)^37]hGIP(1-42)-OH (peptide)
peptide: Y[Aib]EGTF[Ac6c]SDYSIAMDKIHQQDFVNWLLAQKGKKNDWC(Psu)HNITQ-OH
B13: [Aib^2, A6c^7, Cys(Psu)^33]hGIP(1-42)-OH (peptide)
peptide: Y[Aib]EGTF[Ac6c]SDYSIAMDKIHQQDFVNWLLAQKGKC(Psu)NDWKHNITQ-OH
B14: [Aib^2, A6c^7, Cys(Psu)^36]hGIP(1-42)-OH (peptide)
peptide: Y[Aib]EGTF[Ac6c]SDYSIAMDKIHQQDFVNWLLAQKGKKNDC(Psu)KHNITQ-OH
B15: [Aib^2, A6c^7, Cys(Psu)^41]hGIP(1-42)-OH (peptide)
peptide: Y[Aib]EGTF[Ac6c]SDYSIAMDKIHQQDFVNWLLAQKGKKNDWKHNIC(Psu)Q-OH
notes: The synthesis text lists Fmoc-Ala-OH, not Aib, at the cycle for position 2
B16: [Aib^2, A6c^7, Cys(Psu)^39]hGIP(1-42)-OH (peptide)
peptide: Y[Aib]EGTF[Ac6c]SDYSIAMDKIHQQDFVNWLLAQKGKKNDWKHC(Psu)ITQ-OH
B17: [Aib^2, A6c^7, Cys(Psu)^34]hGIP(1-42)-OH (peptide)
peptide: Y[Aib]EGTF[Ac6c]SDYSIAMDKIHQQDFVNWLLAQKGKKC(Psu)DWKHNITQ-OH
B18: [Aib^2, A6c^7, Cys(Psu)^35]hGIP(1-42)-OH (peptide)
peptide: Y[Aib]EGTF[Ac6c]SDYSIAMDKIHQQDFVNWLLAQKGKKNC(Psu)WKHNITQ-OH
B19: [Aib^2, A6c^7, Cys(Psu)^31]hGIP(1-42)-OH (peptide)
peptide: Y[Aib]EGTF[Ac6c]SDYSIAMDKIHQQDFVNWLLAQKC(Psu)KKNDWKHNITQ-OH
B20: [Aib^2, A6c^7, Cys(Psu)^40]hGIP(1-42)-OH (peptide)
peptide: Y[Aib]EGTF[Ac6c]SDYSIAMDKIHQQDFVNWLLAQKGKKNDWKHNC(Psu)TQ-OH
B21: (Aib^2, 7)hGIP(1-30)-NH2 (peptide)
peptide: B2 peptide with X4G, I7X
modifications: Aib at 2 and 7; C-terminal amide
B22: (Aib^2, A6c^7, 41, Nle^14)hGIP(1-42)-OH (peptide)
peptide: Y[Aib]EGTF[Ac6c]SDYSIA[Nle]DKIHQQDFVNWLLAQKGKKNDWKHNI[Ac6c]Q-OH
B23: (Aib^2, A5c^12)hGIP(1-30)-NH2 (peptide)
peptide: B2 peptide with X4G, I12X
modifications: Aib at 2; A5c at 12; C-terminal amide
B24: (Aib^2, 28, A6c^7, Nle^14)hGIP(1-42)-OH (peptide)
peptide: Y[Aib]EGTF[Ac6c]SDYSIA[Nle]DKIHQQDFVNWLL[Aib]QKGKKNDWKHNITQ-OH
B25: (D-Ala^2, A5c^11, His^31)hGIP(1-31)-NH2 (peptide)
peptide: YAEGTFISDYXIAMDKIHQQDFVNWLLAQKH
modifications: D-Ala at 2; A5c at 11; C-terminal amide
notes: as for B4
B26: (Aib^2, A5c^7, 14)hGIP(1-30)-NH2 (peptide)
peptide: B2 peptide with X4G, I7X, M14X
modifications: Aib at 2; A5c at 7 and 14; C-terminal amide
B27: (Aib^2, 5)hGIP(1-30)-NH2 (peptide)
peptide: B2 peptide with X4G, T5X
modifications: Aib at 2 and 5; C-terminal amide
B28: (Aib^2, 11, Nle^14)hGIP(1-30)-NH2 (peptide)
peptide: B3 peptide with A2X, P3E
modifications: Aib at 2 and 11; Nle at 14; C-terminal amide
B29: (Aib^2, Pro^3, A5c^11, A6c^14)hGIP(1-30)-NH2 (peptide)
peptide: B3 peptide with A2X
modifications: Aib at 2; A5c at 11; A6c at 14; C-terminal amide
B30: (A5c^2, 7, Nle^14)hGIP(1-30)-NH2 (peptide)
peptide: B2 peptide with X4G, I7X, M14X
modifications: A5c at 2 and 7; Nle at 14; C-terminal amide
B31: (Aib^2, 8)hGIP(1-30)-NH2 (peptide)
peptide: B2 peptide with X4G, S8X
modifications: Aib at 2 and 8; C-terminal amide
B32: (Gly^2, A5c^11, Nle^14, His^43)hGIP(1-43)-OH (peptide)
peptide: YGEGTFISDYXIAXDKIHQQDFVNWLLAQKGKKNDWKHNITQH
modifications: A5c at 11; Nle at 14; C-terminal free acid
B33: (Aib^2, A5c^11,14, His^43)hGIP(1-43)-OH (peptide)
peptide: B32 peptide with G2X
modifications: Aib at 2; A5c at 11 and 14; C-terminal free acid
B34: (D-Ala^2, A5c^11, Nle^14, His^43)hGIP(1-43)-OH (peptide)
peptide: B32 peptide with G2A
modifications: D-Ala at 2; A5c at 11; Nle at 14; C-terminal free acid
notes: as for B4
B35: (Aib^2, 12)hGIP(1-30)-NH2 (peptide)
peptide: B2 peptide with X4G, I12X
modifications: Aib at 2 and 12; C-terminal amide
B36: (Aib^2, A5c^7)hGIP(1-30)-NH2 (peptide)
peptide: B2 peptide with X4G, I7X
modifications: Aib at 2; A5c at 7; C-terminal amide
B37: (Aib^2, Pro^3, A6c^7)hGIP(1-30)-NH2 (peptide)
peptide: B2 peptide with E3P, X4G, I7X
modifications: Aib at 2; A6c at 7; C-terminal amide
B38: (Aib^2, 8)hGIP(1-42)-OH (peptide)
peptide: YXEGTFIXDYSIAMDKIHQQDFVNWLLAQKGKKNDWKHNITQ
modifications: Aib at 2 and 8; C-terminal free acid
B39: (Aib^2, A6c^7, 26, Nle^14)hGIP(1-42)-OH (peptide)
peptide: B38 peptide with I7X, X8S, M14X, L26X
modifications: Aib at 2; A6c at 7 and 26; Nle at 14; C-terminal free acid
B40: (Aib^2, 31, A6c^7)hGIP(1-42)-OH (peptide)
peptide: B38 peptide with I7X, X8S, G31X
modifications: Aib at 2 and 31; A6c at 7; C-terminal free acid
B41: (Aib^2, A6c^7, 17, Nle^14)hGIP(1-42)-OH (peptide)
peptide: B38 peptide with I7X, X8S, M14X, I17X
modifications: Aib at 2; A6c at 7 and 17; Nle at 14; C-terminal free acid
B42: (Aib^2, 11)hGIP(1-42)-OH (peptide)
peptide: B38 peptide with X8S, S11X
modifications: Aib at 2 and 11; C-terminal free acid
B43: (Aib^2, 31, A6c^7, Nle^14)hGIP(1-42)-OH (peptide)
peptide: B38 peptide with I7X, X8S, M14X, G31X
modifications: Aib at 2 and 31; A6c at 7; Nle at 14; C-terminal free acid
B44: (Aib^2, A6c^7, 27, Nle^14)hGIP(1-42)-OH (peptide)
peptide: B38 peptide with I7X, X8S, M14X, L27X
modifications: Aib at 2; A6c at 7 and 27; Nle at 14; C-terminal free acid
B45: (Aib^2, 9)hGIP(1-42)-OH (peptide)
peptide: B38 peptide with X8S, D9X
modifications: Aib at 2 and 9; C-terminal free acid
B46: (Aib^2, 13, A6c^7, Nle^14)hGIP(1-42)-OH (peptide)
peptide: B38 peptide with I7X, X8S, A13X, M14X
modifications: Aib at 2 and 13; A6c at 7; Nle at 14; C-terminal free acid
B47: (Aib^2, 11)hGIP(1-30)-NH2 (peptide)
peptide: B2 peptide with X4G, S11X
modifications: Aib at 2 and 11; C-terminal amide
B48: (Aib^2, Pro^3, A5c^11)hGIP(1-30)-NH2 (peptide)
peptide: B3 peptide with A2X, X14M
modifications: Aib at 2; A5c at 11; C-terminal amide
B49: (Aib^2, A6c^7, 40, Nle^14)hGIP(1-42)-OH (peptide)
peptide: Y[Aib]EGTF[Ac6c]SDYSIA[Nle]DKIHQQDFVNWLLAQKGKKNDWKHN[Ac6c]TQ-OH
B50: (Aib^2, 41, A6c^7)hGIP(1-42)-OH (peptide)
peptide: Y[Aib]EGTF[Ac6c]SDYSIAMDKIHQQDFVNWLLAQKGKKNDWKHNI[Aib]Q-OH
B51: (Aib^2, A5c^7, Nle^14)hGIP(1-30)-NH2 (peptide)
peptide: B2 peptide with X4G, I7X, M14X
modifications: Aib at 2; A5c at 7; Nle at 14; C-terminal amide
B52: (A6c^2, 7, Nle^14)hGIP(1-30)-NH2 (peptide)
peptide: B2 peptide with X4G, I7X, M14X
modifications: A6c at 2 and 7; Nle at 14; C-terminal amide
B53: (Aib^2, A5c^5)hGIP(1-30)-NH2 (peptide)
peptide: B2 peptide with X4G, T5X
modifications: Aib at 2; A5c at 5; C-terminal amide

Biological target: T1, human recombinant GIP receptor
Assay: [125I]GIP competition, membranes of CHO-K1 cells expressing human GIP receptor

| Molecule | Ki |
| --- | --- |
| (Pro^3, A5c^11, Nle^14)hGIP(1-30)-OH (peptide) | 86.8 nM |
| B1 | 1.33 nM |
| B2 | 107 nM |
| B3 | 871 nM |
| B4 | 0.46 nM |
| B5 | 5.38 nM |
| B6 | 1.04 nM |
| B7 | 80.1 nM |
| B8 | 0.73 nM |
| B9 | 0.75 nM |
| B10 | 5.05 nM |
| B11 | 2.59 nM |
| B12 | 22.7 nM |
| B13 | 1.51 nM |
| B14 | 635 nM |
| B15 | 63.6 nM |
| B16 | 13.8 nM |
| B17 | 356 nM |
| B18 | 288 nM |
| B19 | 75.8 nM |
| B20 | 16 nM |
| B21 | 0.53 nM |
| B22 | 1.17 nM |
| B23 | 0.98 nM |
| B24 | 1.22 nM |
| B25 | 0.87 nM |
| B26 | 2.32 nM |

| Molecule | Ki |
| --- | --- |
| B27 | 3.33 nM |
| B28 | 1.39 nM |
| B29 | 34.1 nM |
| B30 | 25.8 nM |
| B31 | 15.9 nM |
| B32 | 0.87 nM |
| B33 | 0.55 nM |
| B34 | 0.66 nM |
| B35 | 1.84 nM |
| B36 | 0.27 nM |
| B37 | 333 nM |
| B38 | 16.2 nM |
| B39 | 2.54 nM |
| B40 | 6.96 nM |
| B41 | 1.06 nM |
| B42 | 1.2 nM |
| B43 | 2.06 nM |
| B44 | 121 nM |
| B45 | 2.66 nM |
| B46 | 0.3 nM |
| B47 | 0.37 nM |
| B48 | 216 nM |
| B49 | 1.09 nM |
| B50 | 0.87 nM |
| B51 | 4.9 nM |
| B52 | 47 nM |
| B53 | 2.05 nM |
